Experimental data as given in publication PMC6624275.

Biological target: Hen egg-white lysozyme (Hewl) (hen) (UniProt P00698)
Sequence (P00698 19-147): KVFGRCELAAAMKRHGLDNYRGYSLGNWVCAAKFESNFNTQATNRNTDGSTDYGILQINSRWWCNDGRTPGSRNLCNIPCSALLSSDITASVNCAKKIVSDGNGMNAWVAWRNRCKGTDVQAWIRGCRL

Substance	reduction of Hewl (10 U/well)-mediated lysis of M. lysodeikticus cells (OD at 595 nm, 25 °C), rDn-ACP 3-90 pmol/well, read at 2 h and 24 h	reduction of Hewl (10 U/well)-mediated lysis of M. lysodeikticus cells (OD at 595 nm, 25 °C), rNm-ACP 6-180 pmol/well, read at 2 h and 24 h
recombinant Dichelobacter nodosus Adhesin Complex Protein (rDn-ACP) (from UniProt A5EV15 1-230) (natural protein)	100%	–
recombinant Neisseria meningitidis Adhesin Complex Protein (rNm-ACP) (natural protein)	–	80%
